Measured values as given in article PMC9774250.

What was measured:
[1] = tested on: apo-YgaV (His-tagged) (Escherichia coli (WT genomic DNA; BW25113?)); assay: EMSA; settings: EMSA: 50 nM probe, 25 mM Tris-HCl pH 8.0, 100 mM NaCl, 2 mM MgCl2, 6% glycerol, 50 mg/mL heparin (so in the source), room temperature 30 min, footprint: 100 nM DNA …
[2] = tested on: heme-YgaV (His-tagged, hemin-reconstituted) (Escherichia coli (WT genomic DNA; BW25113?)); assay: EMSA; settings: heme; 10 mM Na2S (oxidized); EMSA: 50 nM probe, 25 mM Tris-HCl pH 8.0, 100 mM NaCl, 2 mM MgCl2, 6% glycerol, 50 mg/mL heparin (so in the source), room temperature 30 min; footprint: 100 nM DNA …

Row | Substance | binding signal ([1]; 1 mM DTT (reduced), scale: fold higher YgaV concentration for shift than ygaV promoter) | binding signal (fold higher EC50 than DTT-reduced) ([1]; 10 mM Na2S (oxidized)) | binding signal (fold higher EC50 than DTT-reduced) [2]
1 | katG promoter | 20 | – | –
2 | ygaVP promoter | – | 5 | 5
